Legend:
FGFR1 = FGFR1 (UniProt P11362); experiment: phosphorylation enrichment, bacterial display (enrichment ratio); higher = better substrate or ligand; peptides without Tyr show the background
Fes = Fes (UniProt P07332); experiment: as above
Hck = Hck (UniProt P08631); experiment: as above
Fer (mouse) = experiment: as above
MERTK = MERTK (UniProt Q12866); experiment: as above
FGFR3 = FGFR3 (UniProt P22607); experiment: as above
Jak2 = Jak2 (UniProt O60674); experiment: as above
EPHB2 = EPHB2 (UniProt P29323); experiment: as above
EPHB2, sequence (P29323 whole entry, looked up): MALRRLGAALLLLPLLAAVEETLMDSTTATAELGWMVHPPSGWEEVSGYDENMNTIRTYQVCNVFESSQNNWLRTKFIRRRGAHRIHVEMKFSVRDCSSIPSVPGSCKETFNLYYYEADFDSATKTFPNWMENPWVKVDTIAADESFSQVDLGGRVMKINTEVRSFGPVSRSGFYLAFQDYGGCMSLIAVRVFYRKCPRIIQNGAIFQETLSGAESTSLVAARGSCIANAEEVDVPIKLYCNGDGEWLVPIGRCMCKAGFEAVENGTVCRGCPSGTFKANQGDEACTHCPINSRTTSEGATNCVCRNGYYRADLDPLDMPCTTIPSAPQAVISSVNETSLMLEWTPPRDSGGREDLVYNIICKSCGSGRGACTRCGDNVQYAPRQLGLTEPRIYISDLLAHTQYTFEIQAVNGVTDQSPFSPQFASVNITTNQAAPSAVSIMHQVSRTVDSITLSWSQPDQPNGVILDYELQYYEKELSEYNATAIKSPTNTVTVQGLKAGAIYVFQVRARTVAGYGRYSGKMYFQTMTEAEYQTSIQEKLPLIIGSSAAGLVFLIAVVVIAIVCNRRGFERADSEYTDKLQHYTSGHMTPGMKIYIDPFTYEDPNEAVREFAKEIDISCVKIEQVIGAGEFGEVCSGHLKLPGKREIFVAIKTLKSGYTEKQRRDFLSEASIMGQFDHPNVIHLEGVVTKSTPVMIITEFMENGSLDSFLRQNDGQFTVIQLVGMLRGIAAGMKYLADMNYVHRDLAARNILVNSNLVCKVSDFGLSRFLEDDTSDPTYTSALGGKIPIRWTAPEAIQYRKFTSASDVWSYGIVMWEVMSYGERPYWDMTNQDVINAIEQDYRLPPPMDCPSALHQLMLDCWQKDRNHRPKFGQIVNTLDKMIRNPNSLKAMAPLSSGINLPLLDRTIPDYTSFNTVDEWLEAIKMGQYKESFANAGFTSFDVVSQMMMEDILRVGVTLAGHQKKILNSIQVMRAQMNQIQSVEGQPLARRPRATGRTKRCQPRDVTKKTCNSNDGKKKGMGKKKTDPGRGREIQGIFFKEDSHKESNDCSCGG

c-Abl (mouse) = experiment: as above
c-Src = experiment: as above
AncSZ = experiment: as above
Fyn = Fyn (UniProt P06241); experiment: as above
Fyn, sequence (P06241 whole entry, looked up): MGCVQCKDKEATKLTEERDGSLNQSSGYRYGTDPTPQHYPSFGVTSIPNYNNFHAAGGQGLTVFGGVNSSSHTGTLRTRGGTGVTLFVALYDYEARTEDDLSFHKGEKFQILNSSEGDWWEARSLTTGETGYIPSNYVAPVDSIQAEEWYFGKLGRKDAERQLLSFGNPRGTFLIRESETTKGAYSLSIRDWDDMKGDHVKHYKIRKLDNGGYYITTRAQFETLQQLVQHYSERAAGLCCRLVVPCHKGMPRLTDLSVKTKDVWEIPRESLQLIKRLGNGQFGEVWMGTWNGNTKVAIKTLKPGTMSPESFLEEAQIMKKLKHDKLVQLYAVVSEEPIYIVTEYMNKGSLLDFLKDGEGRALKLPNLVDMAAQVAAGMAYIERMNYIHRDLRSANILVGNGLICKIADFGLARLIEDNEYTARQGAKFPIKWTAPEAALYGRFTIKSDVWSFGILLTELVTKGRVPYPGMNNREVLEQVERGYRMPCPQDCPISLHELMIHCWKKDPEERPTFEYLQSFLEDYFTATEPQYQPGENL

EPHB1 = EPHB1 (UniProt P54762); experiment: as above
c-Src SH2 = experiment: SH2 binding enrichment of the phosphorylated peptide, bacterial display (enrichment ratio); higher = better substrate or ligand; peptides without Tyr show the background
SHP2-C SH2 = experiment: as above
Grb2 SH2 = Grb2 SH2 (UniProt P62993); experiment: as above
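Throughout, for SH2 binding enrichment of the phosphorylated peptide, bacterial display: peptide library displayed on the E. coli surface as eCPX fusions, selected cells deep-sequenced, score is each peptide's frequency after selection divided by its frequency in the input.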
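Throughout, for phosphorylation enrichment, bacterial display: 11-residue human phosphosite peptides and single-mutation variants displayed on the E. coli surface, counted by deep sequencing, each peptide's frequency after selection divided by its frequency in the unselected input library; frequency after pTyr selection over input frequency; kinase dosed for 20-30% of maximal phosphorylation in three min.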

MERTK, sequence (Q12866 whole entry, looked up): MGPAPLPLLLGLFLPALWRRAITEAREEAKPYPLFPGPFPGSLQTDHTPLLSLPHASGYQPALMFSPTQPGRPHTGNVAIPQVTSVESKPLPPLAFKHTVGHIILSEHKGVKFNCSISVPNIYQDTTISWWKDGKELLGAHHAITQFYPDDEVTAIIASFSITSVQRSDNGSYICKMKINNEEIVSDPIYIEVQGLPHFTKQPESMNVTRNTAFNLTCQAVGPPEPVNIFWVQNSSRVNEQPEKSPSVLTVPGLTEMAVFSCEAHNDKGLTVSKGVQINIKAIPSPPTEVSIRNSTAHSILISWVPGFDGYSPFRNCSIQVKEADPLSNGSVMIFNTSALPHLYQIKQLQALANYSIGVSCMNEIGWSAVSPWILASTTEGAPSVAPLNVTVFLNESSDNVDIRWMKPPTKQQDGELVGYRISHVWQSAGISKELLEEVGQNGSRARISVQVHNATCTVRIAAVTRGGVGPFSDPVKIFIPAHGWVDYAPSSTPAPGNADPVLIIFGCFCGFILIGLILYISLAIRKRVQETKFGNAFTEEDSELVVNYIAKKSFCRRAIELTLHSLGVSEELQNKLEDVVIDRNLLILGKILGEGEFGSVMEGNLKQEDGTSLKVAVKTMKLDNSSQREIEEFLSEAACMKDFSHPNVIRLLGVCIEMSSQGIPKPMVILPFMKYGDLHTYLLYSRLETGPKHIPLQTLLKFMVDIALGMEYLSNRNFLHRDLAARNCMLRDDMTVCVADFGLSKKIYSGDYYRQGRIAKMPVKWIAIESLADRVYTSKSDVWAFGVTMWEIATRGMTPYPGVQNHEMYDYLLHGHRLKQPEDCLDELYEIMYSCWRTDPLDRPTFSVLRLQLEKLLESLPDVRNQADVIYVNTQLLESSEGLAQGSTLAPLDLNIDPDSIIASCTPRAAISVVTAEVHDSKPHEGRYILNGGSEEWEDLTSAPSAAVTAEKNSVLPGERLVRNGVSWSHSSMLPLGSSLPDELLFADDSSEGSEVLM
Hck, sequence (P08631 whole entry, looked up): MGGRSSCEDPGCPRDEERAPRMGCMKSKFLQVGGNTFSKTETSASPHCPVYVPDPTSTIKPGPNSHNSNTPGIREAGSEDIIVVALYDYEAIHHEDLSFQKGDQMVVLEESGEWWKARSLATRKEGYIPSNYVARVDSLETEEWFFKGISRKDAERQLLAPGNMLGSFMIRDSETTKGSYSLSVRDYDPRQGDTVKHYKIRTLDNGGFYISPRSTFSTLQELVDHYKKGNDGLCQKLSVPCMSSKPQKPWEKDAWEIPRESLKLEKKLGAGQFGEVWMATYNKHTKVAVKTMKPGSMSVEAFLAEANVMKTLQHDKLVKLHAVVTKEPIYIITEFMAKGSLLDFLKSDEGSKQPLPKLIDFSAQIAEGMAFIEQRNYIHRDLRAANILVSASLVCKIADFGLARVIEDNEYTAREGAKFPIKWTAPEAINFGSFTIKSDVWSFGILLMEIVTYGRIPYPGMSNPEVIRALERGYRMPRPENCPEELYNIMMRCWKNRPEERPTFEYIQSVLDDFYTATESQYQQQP
FGFR1, sequence (P11362 whole entry, looked up): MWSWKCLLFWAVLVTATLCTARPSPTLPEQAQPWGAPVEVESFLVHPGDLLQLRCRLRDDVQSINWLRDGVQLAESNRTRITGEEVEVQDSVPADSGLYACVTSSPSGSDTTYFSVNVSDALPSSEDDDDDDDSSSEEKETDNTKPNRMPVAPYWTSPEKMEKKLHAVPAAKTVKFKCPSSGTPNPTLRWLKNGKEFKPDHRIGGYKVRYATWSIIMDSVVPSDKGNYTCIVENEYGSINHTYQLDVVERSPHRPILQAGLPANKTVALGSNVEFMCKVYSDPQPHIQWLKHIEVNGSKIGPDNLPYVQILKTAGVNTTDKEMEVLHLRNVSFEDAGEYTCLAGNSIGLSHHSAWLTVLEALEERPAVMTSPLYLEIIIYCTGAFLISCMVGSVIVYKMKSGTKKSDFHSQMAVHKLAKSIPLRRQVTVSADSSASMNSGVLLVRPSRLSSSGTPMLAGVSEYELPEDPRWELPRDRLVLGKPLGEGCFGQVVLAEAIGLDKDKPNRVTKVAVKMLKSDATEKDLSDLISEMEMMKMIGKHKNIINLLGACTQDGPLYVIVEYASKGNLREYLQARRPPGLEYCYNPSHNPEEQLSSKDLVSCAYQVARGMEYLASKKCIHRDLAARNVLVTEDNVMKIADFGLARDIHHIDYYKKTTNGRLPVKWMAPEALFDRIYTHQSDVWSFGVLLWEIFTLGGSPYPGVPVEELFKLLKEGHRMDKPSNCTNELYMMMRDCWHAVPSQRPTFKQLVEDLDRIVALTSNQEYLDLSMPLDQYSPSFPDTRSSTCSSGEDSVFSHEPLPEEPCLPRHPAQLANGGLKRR
Jak2, sequence (O60674 whole entry, looked up): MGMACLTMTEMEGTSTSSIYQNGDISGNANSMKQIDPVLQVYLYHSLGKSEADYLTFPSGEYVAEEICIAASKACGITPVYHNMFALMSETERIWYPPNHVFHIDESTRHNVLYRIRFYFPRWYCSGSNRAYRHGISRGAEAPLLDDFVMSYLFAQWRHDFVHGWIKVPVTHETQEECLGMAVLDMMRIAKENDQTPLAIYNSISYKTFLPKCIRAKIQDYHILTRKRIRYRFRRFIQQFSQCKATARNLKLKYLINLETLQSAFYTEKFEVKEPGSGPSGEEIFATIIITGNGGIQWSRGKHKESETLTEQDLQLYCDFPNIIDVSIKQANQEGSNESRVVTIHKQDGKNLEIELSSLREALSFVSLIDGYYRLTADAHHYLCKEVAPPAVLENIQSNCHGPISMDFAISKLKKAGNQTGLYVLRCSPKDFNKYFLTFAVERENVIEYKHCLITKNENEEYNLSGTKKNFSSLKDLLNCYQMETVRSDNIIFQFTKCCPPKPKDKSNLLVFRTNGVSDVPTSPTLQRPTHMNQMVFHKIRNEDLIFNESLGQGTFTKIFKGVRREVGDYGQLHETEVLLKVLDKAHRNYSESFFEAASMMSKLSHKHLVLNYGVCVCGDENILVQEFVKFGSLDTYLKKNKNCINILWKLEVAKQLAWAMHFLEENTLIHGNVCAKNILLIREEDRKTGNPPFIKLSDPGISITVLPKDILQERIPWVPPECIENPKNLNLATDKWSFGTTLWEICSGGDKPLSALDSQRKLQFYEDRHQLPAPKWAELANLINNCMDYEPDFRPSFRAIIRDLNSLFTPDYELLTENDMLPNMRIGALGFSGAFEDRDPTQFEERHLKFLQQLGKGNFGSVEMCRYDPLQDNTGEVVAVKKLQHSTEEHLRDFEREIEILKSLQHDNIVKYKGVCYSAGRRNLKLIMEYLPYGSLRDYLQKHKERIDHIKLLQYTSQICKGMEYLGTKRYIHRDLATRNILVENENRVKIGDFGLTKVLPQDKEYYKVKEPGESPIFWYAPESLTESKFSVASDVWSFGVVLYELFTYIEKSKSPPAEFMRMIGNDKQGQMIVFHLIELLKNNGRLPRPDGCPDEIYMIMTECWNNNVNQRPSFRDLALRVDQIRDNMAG

Row | Sequence | phosphorylation enrichment (FGFR1) | phosphorylation enrichment (Fes) | phosphorylation enrichment (Hck) | phosphorylation enrichment (Fer (mouse)) | phosphorylation enrichment (MERTK) | phosphorylation enrichment (FGFR3) | phosphorylation enrichment (Jak2) | phosphorylation enrichment (EPHB2) | phosphorylation enrichment (c-Abl (mouse)) | phosphorylation enrichment (c-Src) | phosphorylation enrichment (AncSZ) | phosphorylation enrichment (Fyn) | phosphorylation enrichment (EPHB1) | SH2 binding enrichment (c-Src SH2) | SH2 binding enrichment (SHP2-C SH2) | SH2 binding enrichment (Grb2 SH2)
1 | GMTLSYLFREL [NDUFS8_Y74_P79L] | 0.53 | 0.905 | 0.487 | 0.431 | 0.447 | 0.604 | 0.758 | 0.55 | 0.603 | 0.383 | 0.888 | 0.451 | 0.514 | 1.24 | 1.47 | 1.64
2 | GMTRNYIIFIE [BCO2_Y294] | 0.599 | 0.921 | 0.563 | 0.447 | 0.487 | 0.745 | 0.885 | 0.67 | 0.49 | 0.498 | 0.96 | 0.567 | 0.649 | 1.18 | 1.32 | 1.34
3 | GPIEVYLCPEE [E2F3_Y349] | 0.462 | 1.08 | 0.549 | 0.458 | 0.437 | 0.743 | 1.29 | 0.533 | 0.724 | 0.683 | 1.18 | 0.525 | 0.696 | 0.541 | 0.754 | 0.817
4 | GPRSLYNGLVA [UCP2_Y79] | 0.396 | 0.543 | 1.45 | 0.386 | 0.381 | 0.486 | 0.502 | 0.36 | 0.555 | 0.509 | 0.488 | 0.427 | 0.385 | 0.621 | 0.661 | 0.776
5 | GPSTPYTKSKC [SMARCC2_Y324_R329C] | 0.362 | 0.534 | 0.395 | 0.393 | 0.396 | 0.479 | 0.573 | 0.408 | 0.55 | 0.36 | 0.584 | 0.403 | 0.35 | 0.76 | 1.06 | 1.24
6 | GRDQPYSGAGD [TYRO3_Y828] | 0.559 | 0.765 | 0.445 | 0.31 | 0.383 | 0.357 | 0.508 | 0.457 | 0.359 | 0.356 | 0.442 | 0.623 | 0.293 | 0.567 | 0.86 | 0.894
7 | GRFSGYKSKHG [EPHA3_Y570_C568S] | 0.312 | 0.438 | 0.361 | 0.278 | 0.397 | 0.392 | 0.438 | 0.256 | 0.65 | 0.364 | 0.39 | 0.407 | 0.34 | 0.92 | 0.631 | 0.857
8 | GRTNIYNNKKD [SLC26A3_Y520_K521N] | 0.324 | 0.632 | 0.365 | 0.326 | 0.301 | 0.349 | 0.691 | 0.339 | 0.433 | 0.435 | 0.418 | 0.347 | 0.311 | 0.634 | 0.754 | 1.04
9 | GRVYVYHLSEQ [ITGAE_Y551_R552H] | 0.559 | 1.13 | 0.602 | 0.531 | 0.386 | 0.712 | 0.994 | 0.548 | 0.646 | 0.799 | 1.03 | 0.835 | 0.645 | 0.907 | 6.94 | 1.01
10 | GTCGGYCSVLG [RAB18_Y202_A198T] | 0.37 | 0.488 | 0.388 | 0.389 | 0.527 | 0.488 | 0.451 | 0.353 | 0.401 | 0.42 | 0.532 | 0.397 | 0.344 | 8.16 | 2.08 | 0.842
11 | GVIRHSVVCST [BTK_Y334_Y334S] | 0.453 | 0.82 | 0.436 | 0.477 | 0.446 | 0.51 | 0.67 | 0.456 | 0.607 | 0.45 | 0.783 | 0.42 | 0.508 | 0.586 | 0.637 | 0.996
12 | GVKLTYGDAQS [SLC28A1_Y404_N409S] | 0.429 | 0.646 | 0.456 | 0.373 | 0.335 | 0.453 | 0.46 | 0.34 | 0.52 | 0.349 | 0.599 | 0.426 | 0.472 | 0.467 | 0.646 | 0.798
13 | GVRYIYTIDGS [DCX_Y105] | 0.487 | 1.31 | 0.783 | 0.415 | 0.405 | 0.743 | 0.937 | 0.552 | 0.687 | 1.86 | 1.09 | 1.76 | 0.6 | 0.67 | 17.4 | 0.943
14 | GYGGGYGGVLT [KRT19_Y65_A60G] | 0.468 | 0.641 | 0.665 | 0.419 | 0.391 | 0.511 | 0.575 | 0.47 | 0.468 | 0.453 | 0.556 | 0.42 | 0.359 | 0.448 | 0.791 | 0.742
15 | GYKVRYATWSI [FGFR1_Y210] | 0.519 | 1.18 | 0.593 | 0.456 | 0.657 | 0.669 | 1.08 | 0.425 | 0.969 | 0.582 | 1.06 | 0.54 | 0.573 | 1.28 | 2.01 | 1.39
16 | GYRVYYTPDSR [PTPRF_Y451] | 0.73 | 0.768 | 2.69 | 0.477 | 5.3 | 0.675 | 2.29 | 2.15 | 1.89 | 1.54 | 0.794 | 1.24 | 2.35 | 2.77 | 0.977 | 0.955
17 | HCHEGYVLHGA [SVEP1_Y2921_I2922V] | 1.11 | 1.3 | 0.786 | 0.911 | 0.474 | 1.13 | 0.943 | 0.807 | 0.78 | 0.527 | 1.28 | 0.789 | 0.915 | 0.826 | 1.36 | 0.957

Row | Sequence | phosphorylation enrichment (FGFR1) | phosphorylation enrichment (Fes) | phosphorylation enrichment (Hck) | phosphorylation enrichment (Fer (mouse)) | phosphorylation enrichment (MERTK) | phosphorylation enrichment (FGFR3) | phosphorylation enrichment (Jak2) | phosphorylation enrichment (EPHB2) | phosphorylation enrichment (c-Abl (mouse)) | phosphorylation enrichment (c-Src) | phosphorylation enrichment (AncSZ) | phosphorylation enrichment (Fyn) | phosphorylation enrichment (EPHB1) | SH2 binding enrichment (c-Src SH2) | SH2 binding enrichment (SHP2-C SH2) | SH2 binding enrichment (Grb2 SH2)
18 | HEHKGYNANFC [TGFB2_Y341_P338H] | 0.7 | 0.928 | 0.832 | 0.698 | 0.612 | 0.951 | 0.642 | 0.727 | 0.464 | 0.542 | 0.603 | 0.659 | 0.505 | 0.655 | 0.647 | 0.775
19 | HELYVYKCDEN [DOCK3_Y548] | 0.957 | 1.19 | 0.99 | 0.719 | 0.549 | 1.05 | 1.29 | 0.862 | 0.6 | 1.38 | 1.48 | 0.761 | 0.762 | 0.796 | 0.939 | 1.03
20 | HFECKYVINAI [MAOA_Y268_YF] | 0.627 | 1.87 | 0.566 | 0.502 | 0.529 | 0.998 | 1.47 | 0.762 | 1.23 | 0.648 | 2.43 | 0.709 | 1.14 | 0.432 | 0.49 | 0.619
21 | HFGNNYTDVLQ [MACC1_Y803_R804T_YF] | 0.544 | 0.967 | 0.426 | 0.573 | 0.638 | 0.733 | 0.578 | 0.471 | 0.761 | 0.66 | 0.874 | 0.517 | 1.61 | 3.44 | 3.84 | 0.711
22 | HGEAYYSEVKA [PAK5_Y182_P187A] | 2.83 | 0.773 | 2.47 | 3.92 | 4.12 | 1.85 | 1.98 | 0.563 | 0.506 | 2.22 | 1.04 | 1.68 | 0.926 | 4.04 | 0.897 | 0.994
23 | HGVSSYDTIIS [LDLR_Y465_V468I] | 0.944 | 1.08 | 0.738 | 0.712 | 0.797 | 0.785 | 1.08 | 0.819 | 1.63 | 1.03 | 1.06 | 0.669 | 0.827 | 10.6 | 0.546 | 0.546
24 | HHFAAYFQQGD [GPI_Y351_R347H] | 0.669 | 1.13 | 0.549 | 0.435 | 0.475 | 1.19 | 0.989 | 0.602 | 0.945 | 0.725 | 0.906 | 0.418 | 0.581 | 0.661 | 0.898 | 1.21
25 | HIKHNYECLVF [XRCC5_Y416_YF] | 0.796 | 1.09 | 0.821 | 0.665 | 0.382 | 1.09 | 0.547 | 1.44 | 0.4 | 0.53 | 1.31 | 0.709 | 1.86 | 4.51 | 0.715 | 0.85
26 | HLGNQYVNVMN [SLC3A1_Y461_R456H] | 0.735 | 0.902 | 0.85 | 0.603 | 0.29 | 0.643 | 0.618 | 0.477 | 0.764 | 0.471 | 0.905 | 0.483 | 0.565 | 4 | 2.63 | 20.1
27 | HLRAGYIIPLQ [GAA_Y822] | 0.367 | 0.753 | 0.268 | 0.257 | 0.355 | 0.534 | 0.671 | 0.453 | 0.681 | 0.327 | 0.668 | 0.417 | 0.398 | 1.66 | 3.2 | 1.66
28 | HNLDYYKMTTN [FGFR3_Y648_K650M] | 17.7 | 1.04 | 0.607 | 0.64 | 0.68 | 14 | 11.2 | 1.2 | 0.591 | 0.894 | 1.91 | 0.454 | 2.13 | 0.757 | 1 | 0.756
29 | HNLYSYPTKHE [MYO3A_Y1396] | 0.782 | 1.18 | 8.1 | 15.2 | 13.6 | 0.838 | 0.561 | 16 | 3.28 | 2.96 | 3.92 | 5.22 | 11.6 | 1.8 | 0.752 | 0.619
30 | HSDYQYSQRSQ [PKP2_Y168] | 0.344 | 0.587 | 0.353 | 0.365 | 0.501 | 0.377 | 1.11 | 0.645 | 0.749 | 0.519 | 0.821 | 0.39 | 0.495 | 0.484 | 0.587 | 0.91
31 | HSHTRYERNIE [F2_Y434_R431H] | 0.62 | 0.85 | 0.477 | 0.655 | 0.5 | 0.555 | 0.47 | 0.387 | 0.694 | 0.795 | 0.766 | 0.446 | 0.67 | 0.843 | 1.12 | 1.2
32 | HTVEDYQAIVD [CCT7_Y263] | 0.818 | 2.21 | 0.794 | 0.85 | 0.734 | 1.06 | 1.67 | 0.936 | 1.68 | 0.836 | 1.73 | 0.773 | 0.882 | 0.465 | 0.807 | 0.816
33 | HTVVSYAKVRA [CLOCK_Y378_E380K] | 0.917 | 1.3 | 0.85 | 0.673 | 0.934 | 0.933 | 1.04 | 0.972 | 0.65 | 0.489 | 1.2 | 1.23 | 0.749 | 1.12 | 14.5 | 1.11
